Legend:
human SIAH1-SBD (91–282) [1] = target: T1, human SIAH1-SBD (91–282) (human, UniProt Q8IUQ4-1 91-282); experiment: ITC
T1 sequence (looked up): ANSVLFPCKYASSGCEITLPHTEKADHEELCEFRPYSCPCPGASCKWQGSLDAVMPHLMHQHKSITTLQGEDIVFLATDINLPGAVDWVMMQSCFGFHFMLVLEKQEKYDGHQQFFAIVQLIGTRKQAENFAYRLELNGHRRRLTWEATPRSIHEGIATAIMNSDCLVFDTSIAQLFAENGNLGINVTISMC

human SIAH1-SBD (91–282) [2] = target: T1, human SIAH1-SBD (91–282); experiment: pull-down

Binder | Kd (human SIAH1-SBD (91–282) [1]) [µM] | binding result (human SIAH1-SBD (91–282) [2])
YRVPKEVRVEPQKFAEELIH (peptide, UniProt O15169-1 375-394, looked up) [20-residue human AXIN1 peptide (residues 375–394)] | 5.6 | 
GST-tagged AXIN1 (353–436) (domain or fragment, human, UniProt O15169-1 353-436, looked up) RREMQESVQVNGRVPLPHIPRTYRVPKEVRVEPQKFAEELIHRLEAVQRTREAEEKLEERLKRVRMEEEGEDGDPSSGPPGPCH |  | binds
